US20070178531A1 (BIOCHECK, published 2007)

Legend:
Human Id1: Histidine [1] = molecular target: T1, Human Id1: Histidine (human, UniProt P41134 1-155, limits assumed); assay: ELISA, positive control (stated to be BCH-4/6-1) 0.25 µg/ml
T1 construct: Fusion protein made in E. coli from vector pGW07; also called h-Id1: his; not shown: His tag
T1 sequence (looked up): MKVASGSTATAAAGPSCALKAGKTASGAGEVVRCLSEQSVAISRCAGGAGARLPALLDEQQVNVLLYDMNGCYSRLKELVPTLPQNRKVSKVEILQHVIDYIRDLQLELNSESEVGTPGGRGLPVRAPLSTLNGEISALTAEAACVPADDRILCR
Procedure: (§1) 1. Dispense 100 μL of antibody diluent, diluted rabbit monoclonal human Id3, and mouse/human Id3 hybridoma supernatants into appropriate wells. […] 2. Incubate at room temperature with mechanical shaking at 750 rpm for 90 minutes. [0165] 3. Remove the incubation mixture by flicking plate content into an appropriate waste container followed by rinsing the wells 5 times with distilled water. [0166] 4. Strike the wells sharply onto absorbent paper or paper towels to remove all residual water droplets. [0167] 5. Dispense 100 μL of 1:50,000 Goat Anti-Rabbit IgG-HRP Conjugate Reagent into each well. Gently mix for 5 seconds. [0168] 6. Incubate at room temperature with mechanical shaking at 750 rpm for 90 minutes. [0169] 7. Repeat procedures 3 and 4. [0170] 8. Dispense 100 μL of TMB Reagent into each well. Gently mix for 5 seconds. [0171] 9. Incubate at room temperature with mechanical shaking at 750 rpm for 20 minutes. […] 10. Add 100 μL of Stop Solution (1N HCl) into each well. [0173] 11. Gently mix for 10 seconds to ensure a complete mixing. [0174] 12. Read optical density at A450 nm.
(§2) The materials and method are the same as those described in Example 9 except the following.
(§3) Rabbit monoclonal anti-mouse Id3, hybridoma supernatant was used as the test antibody. Protein G purified, rabbit monoclonal anti-mouse/human Id3 antibody, BCH-4/6-1, 0.92 mg/ml in 0.25% BSA was used as positive controls.

Mouse Id3: Histidine [2] = molecular target: T2, Mouse Id3: Histidine (mouse, UniProt P41133 1-119); assay: as above
T2 construct: Fusion protein made in E. coli from vector pGW07; also called m-Id3: His; Mouse Id3 (coated wells); not shown: His tag
T2 sequence: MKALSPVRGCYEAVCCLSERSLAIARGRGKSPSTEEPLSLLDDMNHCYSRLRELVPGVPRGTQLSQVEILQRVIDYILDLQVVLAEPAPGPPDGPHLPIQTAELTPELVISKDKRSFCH
Procedure: as §1, §2, §3

Human Id3: Histidine [3] = molecular target: T3, Human Id3: Histidine (human, UniProt Q02535 1-119 at identity 1.00)); assay: as above
T3 construct: Fusion protein made in E. coli from vector pGW07; also called h-Id3: His; Human Id3 (coated wells); not shown: His tag
T3 chain: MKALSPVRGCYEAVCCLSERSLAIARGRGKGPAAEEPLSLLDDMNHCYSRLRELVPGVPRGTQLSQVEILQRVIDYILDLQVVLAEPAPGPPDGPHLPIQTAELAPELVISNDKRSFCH
Procedure: as §1, §2, §3

Human Id2: Histidine [4] = molecular target: T4, Human Id2: Histidine (human, UniProt Q02363 1-134, limits assumed); assay: as above
T4 construct: Fusion protein made in E. coli from vector pGW07; also called h-Id2: His; not shown: His tag
T4 sequence (looked up): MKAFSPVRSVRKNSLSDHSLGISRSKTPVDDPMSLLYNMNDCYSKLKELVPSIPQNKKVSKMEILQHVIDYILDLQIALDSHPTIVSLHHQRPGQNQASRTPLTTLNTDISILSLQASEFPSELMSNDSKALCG
Procedure: as §1, §2, §3

Mouse Id1: Histidine [5] = molecular target: T5, Mouse Id1: Histidine (mouse, UniProt P20067-2 1-148, limits assumed); assay: as above
T5 construct: Fusion protein made in E. coli from vector pGW07; also called m-Id1-His; not shown: His tag
T5 sequence (looked up): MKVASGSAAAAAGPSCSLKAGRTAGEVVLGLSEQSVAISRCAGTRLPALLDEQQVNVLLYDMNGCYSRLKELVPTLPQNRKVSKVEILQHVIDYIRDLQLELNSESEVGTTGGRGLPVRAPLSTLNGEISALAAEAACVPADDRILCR
Procedure: as §1, §2, §3

Mouse Id2: Histidine [6] = molecular target: T6, Mouse Id2: Histidine (mouse, UniProt P41136 1-134, limits assumed); assay: as above
T6 construct: Fusion protein made in E. coli from vector pGW07; also called m-Id2: His; not shown: His tag
T6 sequence (looked up): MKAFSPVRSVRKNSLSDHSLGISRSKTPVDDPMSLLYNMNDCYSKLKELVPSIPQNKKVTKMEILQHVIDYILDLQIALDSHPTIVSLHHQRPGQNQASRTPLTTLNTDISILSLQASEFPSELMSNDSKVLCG
Procedure: as §1, §2, §3

Mouse Id3: Histidine [7] = molecular target: T2, Mouse Id3: Histidine; assay: ELISA, positive control (stated to be BCH-4/6-1) 0.50 µg/ml
Procedure: as §1, §2, §3

Mouse Id1: Histidine [8] = molecular target: T5, Mouse Id1: Histidine; assay: as above
Procedure: as §1, §2, §3

Human Id1: Histidine [9] = molecular target: T1, Human Id1: Histidine; assay: ELISA, Ab 0.500 µg/ml
Mouse Id3: Histidine [10] = molecular target: T2, Mouse Id3: Histidine; assay: ELISA, Ab 0.500 µg/ml
Human Id3: Histidine [11] = molecular target: T3, Human Id3: Histidine; assay: ELISA, Ab 0.500 µg/ml
Human Id2: Histidine [12] = molecular target: T4, Human Id2: Histidine; assay: ELISA, Ab 0.500 µg/ml
Mouse Id1: Histidine [13] = molecular target: T5, Mouse Id1: Histidine; assay: ELISA, Ab 0.500 µg/ml
Mouse Id2: Histidine [14] = molecular target: T6, Mouse Id2: Histidine; assay: ELISA, Ab 0.500 µg/ml

B1: rabbit monoclonal anti-mouse/human Id3, clone #BCH-4/#6-1 (antibody, V domains shown)
VH: QSVEESGGRLVTPGTPLTLTCTASGFSLSNVYIHWVRQAPGKGLEWIGYISDGDTARYATWAKGRFTISKTSSTTVNLKMTSLTTEDTATYFCARQGFNIWGPGTLVTVSL
VL: AVLTQTPSPVSAAVGGTVSISCQSSQSVWNNNWLSWFQQKPGQPPKLLIYETSKLESGVPSRFKGSGSGTQFTLTISDVQCDDAATYYCLGGYWTTSDNNVFGGGTEVVVK
notes: Rabbit IgG from a rabbit hybridoma; also called m/h Id3 MoAb 6-1
A450 (Human Id1: Histidine [1]): 2.12 A450 | A450 (Mouse Id3: Histidine [2]): 2.81 A450 | A450 (Human Id3: Histidine [3]): 2.69 A450 | A450 (Human Id2: Histidine [4]): 2.54 A450 | A450 (Mouse Id1: Histidine [5]): 1.96 A450 | A450 (Mouse Id2: Histidine [6]): 2.44 A450 | A450 (Mouse Id3: Histidine [7]): 3.18 A450 | A450 (Mouse Id1: Histidine [8]): 2.2 A450 | A450 (Human Id1: Histidine [9]): 0.062 A450 | A450 (Mouse Id3: Histidine [10]): 3.47 A450 | A450 (Human Id3: Histidine [11]): 3.3 A450 | A450 (Human Id2: Histidine [12]): 0.062 A450 | A450 (Mouse Id1: Histidine [13]): 0.067 A450 | A450 (Mouse Id2: Histidine [14]): 0.073 A450
